From patent US20170183396A1 (published 2017)

T1: ZEBOV GP (Zaire ebolavirus, UniProt Q05320 33-650)
T1 sequence: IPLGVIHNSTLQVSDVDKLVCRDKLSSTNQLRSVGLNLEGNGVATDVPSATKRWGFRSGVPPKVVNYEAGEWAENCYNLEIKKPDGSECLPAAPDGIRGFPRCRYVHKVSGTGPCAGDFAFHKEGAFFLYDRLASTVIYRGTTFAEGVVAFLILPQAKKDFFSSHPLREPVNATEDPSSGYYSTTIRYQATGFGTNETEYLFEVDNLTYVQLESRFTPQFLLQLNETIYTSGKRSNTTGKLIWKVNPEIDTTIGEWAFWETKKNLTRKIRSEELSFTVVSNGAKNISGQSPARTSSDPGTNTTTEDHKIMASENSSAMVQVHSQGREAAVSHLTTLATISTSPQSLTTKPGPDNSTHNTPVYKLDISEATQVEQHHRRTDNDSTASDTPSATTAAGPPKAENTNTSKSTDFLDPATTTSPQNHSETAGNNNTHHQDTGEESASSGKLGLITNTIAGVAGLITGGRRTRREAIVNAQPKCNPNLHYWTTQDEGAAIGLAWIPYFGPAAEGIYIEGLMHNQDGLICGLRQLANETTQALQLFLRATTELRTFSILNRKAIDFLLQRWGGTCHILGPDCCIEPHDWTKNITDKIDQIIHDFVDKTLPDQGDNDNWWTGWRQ

B1: CAN9G1 monoclonal antibody (antibody, V domains shown)
VH: ERQLVESGGGVVKPGESLKLSCAASGFAFSSYDMSWVRQTPEKRLEWVAYSSRGGGFTYYPDTVKGRFTIARDNAKNTLHLQMSSLKSEDTAMYYCATHYYGPLYAMDYWGQGTSVTVSS
VL: QLVLTQSSSASFSLGASAKLTCTLSSQHSTFTIEWYQQQPLKAPKYVMELKKDGSHSTGDGIPDRFSGSSSGADRYLWISNIQPEDEAMYICGVGDTIKEQFVYVFGGGTKVTVL

Key:
[1] = target: ZEBOV GP (Zaire ebolavirus) (UniProt Q05320); assay: affinity for recombinant ZEBOV GP; method not described
ZEBOV GP = target: T1, ZEBOV GP; assay: as above

| Molecule | Kd [1] | Kd (ZEBOV GP) |
| --- | --- | --- |
| USAMRIID mAb 13F6 (antibody) | 0.33 nM | – |
| B1 | – | 0.27 nM |
